# Measurements as given in the supplement of paper PMC7877785.
# ± gives the uncertainty stated by the source.
# Test: self-splicing fitness, log relative to wild type (ln ratio); higher = more splicing; Tetrahymena group I intron in knt gene, E. coli kanamycin selection, DiMSum; sequences stand for … in CUCUCU…GGAGGGAAAAGUUAUCAGGCAUGCACCUGGUAGCUAGUCUUUAAACCAAUAGAUUGCAUCGGUUUAAAAGGCAAGACCGUCAAAUUGCGGGAAAGGGGUCAACAGCCGUUCAGUACCAAGUCUCAGGGGAAACUUUGAGAUGGCCUUGCAAAGGGUAUGGUAAUAAGCUGACGGACAUGGUCCUAACCACGCAGCCAAGUCCUAAGUCAACAGAUCUUCUGUUGAUAUGGAUGCAGUUCACAGACUAAAUGUCGGUCGGGGAAGAUGUAUUCUUCUCAUAAGAUAUAGUCGGACCUCUCCUUAAUGGGAGCUAGCGGAUGAAGUGAUGCAACACUGGAGCCGCUGGGAACUAAUUUGUAUGCGAAAGUAUAUUGAUUAGUUUUGGAGUACUCGUGGUCG
# Outline: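 Six replicate transformations of E. coli BL21(DE3) with a pET-22b(+) library were grown overnight at 37°C or 30°C. The library randomised all eight P1ex-region intron nucleotides, the intron lying in the knt kanamycin-resistance gene, and plates were LB agar with or without 25 μg/mL kanamycin plus 100 μg/mL carbenicillin, 50 μM IPTG and 0.2% rhamnose. Pooled colonies were amplicon-sequenced on an Illumina HiSeq 2500, and fitness is the DiMSum error-weighted combination of wild-type-normalised replicate fold changes, kanamycin versus none.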
Sequence,self-splicing fitness (ln) (37 °C),self-splicing fitness (ln) (30 °C)
ACUGAGCAAUAUUACGCCAC,-2.31 ± 0.35,–
ACUGAGCAAUAUUACGCUCU,-2.31 ± 0.24,-3.59 ± 0.2
ACUGAGCAAUAUUACGGCGG,-1.54 ± 0.13,-1.46 ± 0.1
ACUGAGCAAUAUUACGGCUA,-1.63 ± 0.16,-1.61 ± 0.15
ACUGAGCAAUAUUACGGGUA,-1.67 ± 0.14,-3.08 ± 0.24
ACUGAGCAAUAUUACGGGUC,-3.02 ± 0.33,-4.21 ± 0.27
ACUGAGCAAUAUUACGGGUG,-1.38 ± 0.15,-2.49 ± 0.15
ACUGAGCAAUAUUACGGGUU,-3.88 ± 0.28,-2.09 ± 0.1
ACUGAGCAAUAUUACGUGCA,-2.36 ± 0.25,-2.8 ± 0.2
ACUGAGCAAUAUUACGUGUA,-2.5 ± 0.17,-3.51 ± 0.2
ACUUAGCAAUAUUACGACAG,0.0363 ± 0.1,-0.902 ± 0.08
ACUUAGCAAUAUUACGACGU,0.549 ± 0.079,-0.13 ± 0.076
ACUUAGCAAUAUUACGCGCA,-0.258 ± 0.13,-0.717 ± 0.093
ACUUAGCAAUAUUACGCGCC,-0.348 ± 0.19,-1.35 ± 0.18
ACUUAGCAAUAUUACGCGUA,-1.18 ± 0.2,-1.82 ± 0.2
ACUUAGCAAUAUUACGCGUG,-1.13 ± 0.11,-1.89 ± 0.1
ACUUAGCAAUAUUACGCUAA,-3.09 ± 0.29,-2.99 ± 0.39
ACUUAGCAAUAUUACGGAUA,-1.15 ± 0.18,-3.09 ± 0.28
ACUUAGCAAUAUUACGGAUC,-1.35 ± 0.16,-2.09 ± 0.11
ACUUAGCAAUAUUACGGCCG,-0.251 ± 0.11,-0.516 ± 0.071
ACUUAGCAAUAUUACGGGAG,-1.3 ± 0.085,-1.75 ± 0.072
ACUUAGCAAUAUUACGGUCU,0.0181 ± 0.082,-1.41 ± 0.088
ACUUAGCAAUAUUACGGUUG,-1.43 ± 0.15,-3.15 ± 0.17
ACUUAGCAAUAUUACGUCAG,-1.56 ± 0.12,-1.93 ± 0.11

Sequence,self-splicing fitness (ln) (37 °C),self-splicing fitness (ln) (30 °C)
ACUUAGCAAUAUUACGUCCA,-0.528 ± 0.2,-1.56 ± 0.2
ACUUAGCAAUAUUACGUGAG,-0.0975 ± 0.087,-0.348 ± 0.067
ACUUAGCAAUAUUACGUGGG,-1.14 ± 0.12,-2.95 ± 0.14
ACUUAGCAAUAUUACGUUAA,-2.02 ± 0.2,-4.2 ± 0.46
ACUUAGCAAUAUUACGUUUC,-2.78 ± 0.27,-4.28 ± 0.31
AGAAAGCAAUAUUACGAAGC,-2.91 ± 0.48,-3.61 ± 0.47
AGAAAGCAAUAUUACGAAUC,-2.39 ± 0.24,-3 ± 0.26
AGAAAGCAAUAUUACGACUA,-0.42 ± 0.12,-0.244 ± 0.12
AGAAAGCAAUAUUACGACUG,-0.249 ± 0.12,-1.04 ± 0.093
AGAAAGCAAUAUUACGAGCC,-0.816 ± 0.21,-2.01 ± 0.17
AGAAAGCAAUAUUACGAGCU,0.0125 ± 0.072,-0.0239 ± 0.055
AGAAAGCAAUAUUACGAGUG,-1.96 ± 0.12,-2.27 ± 0.094
AGAAAGCAAUAUUACGAGUU,-0.668 ± 0.11,-1.58 ± 0.084
AGAAAGCAAUAUUACGAUGA,-0.785 ± 0.11,-0.734 ± 0.1
AGAAAGCAAUAUUACGAUUC,-1.07 ± 0.14,-1.03 ± 0.095
AGAAAGCAAUAUUACGCAAC,-2.02 ± 0.39,-1.96 ± 0.25
AGAAAGCAAUAUUACGCAGU,-2.07 ± 0.2,-2.5 ± 0.16
AGAAAGCAAUAUUACGCCCU,0.131 ± 0.14,0.0807 ± 0.13
AGAAAGCAAUAUUACGCUCA,1.19 ± 0.18,-0.775 ± 0.15
AGAAAGCAAUAUUACGCUCC,-1.19 ± 0.24,-1.89 ± 0.23
AGAAAGCAAUAUUACGCUGG,-2.77 ± 0.31,-3.7 ± 0.36
AGAAAGCAAUAUUACGCUUU,-3.24 ± 0.4,-3.57 ± 0.23
AGAAAGCAAUAUUACGGCGA,-1.02 ± 0.14,-0.0252 ± 0.17
AGAAAGCAAUAUUACGGGCU,-0.993 ± 0.13,-1.04 ± 0.12

Sequence,self-splicing fitness (ln) (37 °C),self-splicing fitness (ln) (30 °C)
AGAAAGCAAUAUUACGGGGG,-2.71 ± 0.17,-3.3 ± 0.15
AGAAAGCAAUAUUACGGUGU,-1.28 ± 0.096,-2.76 ± 0.098
AGAAAGCAAUAUUACGUCGA,-0.242 ± 0.08,-0.974 ± 0.069
AGAAAGCAAUAUUACGUGCC,-0.309 ± 0.16,-0.45 ± 0.12
AGAAAGCAAUAUUACGUUCG,0.484 ± 0.092,-0.631 ± 0.07
AGAAAGCAAUAUUACGUUCU,-1.41 ± 0.14,-2.72 ± 0.15
AGAAAGCAAUAUUACGUUUG,-2.24 ± 0.21,-2.48 ± 0.14
AGACAGCAAUAUUACGAAGU,-2.26 ± 0.15,-3.47 ± 0.14
AGACAGCAAUAUUACGACAU,-0.0048 ± 0.032,-0.107 ± 0.011
AGACAGCAAUAUUACGAUCG,0.599 ± 0.11,-0.599 ± 0.072
AGACAGCAAUAUUACGCAAG,-0.553 ± 0.1,-2.89 ± 0.11
AGACAGCAAUAUUACGCACU,-0.203 ± 0.13,-0.646 ± 0.12
AGACAGCAAUAUUACGCAGA,-1.38 ± 0.2,-2.56 ± 0.27
AGACAGCAAUAUUACGCAUA,-1.23 ± 0.11,-2.73 ± 0.18
AGACAGCAAUAUUACGCCAG,-3.27 ± 0.26,-4.58 ± 0.46
AGACAGCAAUAUUACGCGCA,0.312 ± 0.13,-0.449 ± 0.084
AGACAGCAAUAUUACGCGCC,-0.637 ± 0.12,-0.399 ± 0.14
AGACAGCAAUAUUACGCUUU,-1.23 ± 0.12,-3.18 ± 0.18
AGACAGCAAUAUUACGGAUA,-2.17 ± 0.13,-2.97 ± 0.12
AGACAGCAAUAUUACGGGUC,-2.92 ± 0.31,-3.04 ± 0.18
AGACAGCAAUAUUACGUCCC,-0.529 ± 0.17,-2.45 ± 0.18
AGACAGCAAUAUUACGUCCG,-0.305 ± 0.15,-0.314 ± 0.12
AGACAGCAAUAUUACGUCGC,-1.98 ± 0.19,-2.96 ± 0.2
AGACAGCAAUAUUACGUCUU,-2.74 ± 0.18,-4.54 ± 0.25

Sequence,self-splicing fitness (ln) (37 °C),self-splicing fitness (ln) (30 °C)
AGACAGCAAUAUUACGUUCC,-1.77 ± 0.18,-2.2 ± 0.16
AGACAGCAAUAUUACGUUCG,0.0905 ± 0.072,-0.687 ± 0.05
AGAGAGCAAUAUUACGACUU,-0.522 ± 0.15,-1.7 ± 0.15
AGAGAGCAAUAUUACGAGAU,-1.38 ± 0.27,-2.92 ± 0.37
AGAGAGCAAUAUUACGAGGG,-2.35 ± 0.42,-3.58 ± 0.39
AGAGAGCAAUAUUACGAGUG,-2.15 ± 0.34,–
AGAGAGCAAUAUUACGGAAG,-1.32 ± 0.22,-3.74 ± 0.33
AGAGAGCAAUAUUACGGCAC,-1.68 ± 0.18,–
AGAGAGCAAUAUUACGGUUU,-2.58 ± 0.25,-1.98 ± 0.19
AGAGAGCAAUAUUACGUAGA,-2.65 ± 0.34,-3.63 ± 0.25
AGAGAGCAAUAUUACGUCAG,–,-0.659 ± 0.45
AGAGAGCAAUAUUACGUGGC,-1.59 ± 0.35,-3.07 ± 0.25
AGAGAGCAAUAUUACGUUCC,-3.14 ± 0.47,-1.63 ± 0.18
AGAGAGCAAUAUUACGUUCU,-2.26 ± 0.45,-3.19 ± 0.41
AGAUAGCAAUAUUACGAAAG,-1.23 ± 0.21,-2.68 ± 0.2
AGAUAGCAAUAUUACGAACG,-0.323 ± 0.13,-1.12 ± 0.12
AGAUAGCAAUAUUACGAAGC,-1.5 ± 0.28,–
AGAUAGCAAUAUUACGAGCC,-1.76 ± 0.28,-0.476 ± 0.18
AGAUAGCAAUAUUACGAGUU,-0.588 ± 0.099,-2.21 ± 0.1
AGAUAGCAAUAUUACGAUGG,-3.07 ± 0.22,-2.2 ± 0.14
AGAUAGCAAUAUUACGAUUU,0.527 ± 0.11,-0.348 ± 0.084
AGAUAGCAAUAUUACGCAAU,-1.34 ± 0.15,-1.14 ± 0.1
AGAUAGCAAUAUUACGCAGG,-0.155 ± 0.19,-1.91 ± 0.17
AGAUAGCAAUAUUACGCCCC,-0.202 ± 0.4,-1.27 ± 0.26
